# Assay: soluble on expression in E. coli; label from the status in PepcDB or PDB records
row,Sequence,soluble on expression in E. coli
1,MGSDKIHHHHHHMSKVFSPFQFDNSFVRSMEGFFEPWQGARVPAPAMVCFNQQLADELGMDADAMEDSRLAAFFCGMLTAEGSEPVAMAYAGHQFGGFSPRLGDGRALLLGEVKDIHGRRRDLHLKGSGRTNFSRGGDGKAVLGPVLREYLMGEAMHALGIPTTRALAAVTTGEDIYRDGIKPGAVLARVASSHIRVGTFEYAAARGDHEGLRELVNYSLKRHYPELEDEQTPALALLNSVSRAQAKLVAKWMGVGFIHGVMNTDNVTISGETIDYGPCAFMDTYDARTVFSSIDHEGRYAYGNQPGIARWNLARFAEALLPLLAEDESEALAHAQTVLDGFAEVYTNEWLAVFAAKFGLKTAQDGDLELFMDFLTLLGELKLDFTRSFRALANSLGDTAAAGIEALTADSARFAPWLTRWHERLGREYASQSDFASDARALMQGVNPVYIPRNHLLQGALDSAEAGDMAPFERLLEVVCRPYEELAGYGAYALGAPEDFGPFRTFCGT,not soluble
2,MVEKEEAGGGISEEEAAQYDRQIRLWGLEAQKRLRASRVLLVGLKGLGAEIAKNLILAGVKGLTMLDHEQVTPEDPGAQFLIRTGSVGRNRAEASLERAQNLNPMVDVKVDTEDIEKKPESFFTQFDAVCLTCCSRDVIVKVDQICHKNSIKFFTGDVFGYHGYTFANLGEHEFVEEKTKVAKVSQGVEDGPDTKRAKLDSSETTMVKKKVVFCPVKEALEVDWSSEKAKAALKRTTSDYFLLQVLLKFRTDKGRDPSSDTYEEDSELLLQIRNDVLDSLGISPDLLPEDFVRYCFSEMAPVCAVVGGILAQEIVKALSQRDPPHNNFFFFDGMKGNGIVECLGPK,soluble
3,MIVRGGGDLATGVIQKLWHVGFKILVLETECPLAIRRTVSVCDAIFQKEQRVEDLVAVRITSLKDCAKCWQQNKLPVFVDQTASAIQQLKPLIVIDAILAKKNLGTHRGMAPITIALGPGFSAPQDVDVVIETMRGHRLGRLYFEGTALPNTGIPGEIGGKSAERVVHAPASGQVTHLKNIGDLVLKGEALFLIDQVPVYSPLTGTLRGLISEKVTCYQGLKCADVDPRPVEKVDCLTISDKARALGGAVLEAIFMIGRRKNVLLEHHHHHH,soluble
4,MGSDKIHHHHHHMIIIIDEASAKLASFYYHDEIFKPQWKCAADMSSASDELHDEFQEKLQEKLPDELREKLYVVLPADESINDFQKTTIQESADNTAKANTGNLRIPKAPTDCIWIVSDRQQKQIADSLGIASVGEPQCGTRYAVESLAELDIEYLERVRRRYNHIPWDIGETDRCLIRELSLADLPALYELYDKPGMTDFVEPLYDYETELEYQKAYIENMYDFYEYGMWLVFSKETGKLIGRAGLEHNEMGYMIAPEFQNLGYATEVCRFIVDYARKNTDFEELYCRIDEKNVASVRLAKRLGFVRNGQIGNERNTGGLDRYVLSI,not soluble
5,MQYHEIGKTGMKVSSLSFGASSLGGVFHDLKEKEGIQAVFTAIEAGMNFIDVSPYYGHYKAETVLGKALKDIPRDRYYLSTKVGRYGKDGVNTWDYSAKRATESVYESMERLNIDFIDLINVHDIEFADLNQVVNETLPALVELREKGVVGHVGITDLQLENLKWVIDRSPSGTIESVLSFCHYCLCDDKLADFLDYFESKEIGVINASPLSMGLLSERGVPVWHPAPKPLVDACRKAMEHCKAKNYPIEKLAMQFSVSNPKIATTLFSTTNPENVKKNIGFIEEPVDWELVREVREIIGEQQRVSWANS,not soluble
6,MGRIISSYIFPHPPLIVPEIGKGDEKGAIKTIEACEKAAEQIRKEKPSTIILTTSHAPLFEDYIFINDHKTLKGNFSRFGARKVELGFENNLKMVESIIEFAKKEGFDAGGISEGIGRRYGISGELDHGALVPLYYISRVYSDFKLVHVAMSTLTLEEHYKFGMCIGEAVRNSDEDVVFVASGDLAHRLTSDGPYGYNKHAPEFDELLVKSIEKDDIDRILDIDDKLRDEAAECGLRSFVIMLGALDGYSVVPEVYSYEGPFGVGYMVARIGVGAMDSSRRIIENRRNKRKKSTDPYVSLAKRALEAYVTEGRVLDDYSGLPEEMLNSRAGTFVSIKKKGELRGCIGTIGPTRKNIASEIVHNAISAGTSDPRFYPVKPYELDELEYSVDVLMEPEEINSMDELDVVKYGVIVRAGRRTGLLLPNLENVNTVEQQVSIALQKAGISPNEKYTMERFEVIRHK,not soluble
7,MGHHHHHHSHMAEAKPDVWKSYNVGTVLFEDKASETKGSDIYHRIIPDAESYIKEQARTVLATLYNSPEDSITPVNKIHYTLEDIEGISAKGGGNGDVTIFYSTRHIEKSFAENDTAKLFFETRGVLLHELTHAYQLEPQGIGSYGTNRVFWAFIEGMADAVRVANGGFDGPNARPKGGNYMDGYRTAGYFFVWLRDNKDPEFLRKFNRSTLEVIPWSFDGAIKHILGTEYSIDELWHEYQVAVGDIQV,soluble
8,IQILSKSKLEKCEKTSDSGNLNCSTKIVLNLAVPSGSSGGEASIVAEIVEVEDNSSSNMQTVRIPPVITVNKSAAYALYDLTYIRDVPYKPQEYHVTTRKCEPDAGPDIVQICERLRDEKGNVLEQTQPICCPCGPQRRMPSSCGDIFDKMIKGKANTAHCLRFPGDWFHVFGIGQRSLGFSVRVELKTGTRVSEVIIGPENRTATANDNFLKVNLIGDFGGYTSIPSFEDFYLVIPREAAEAGQPGSLGANYSMWMLLERVRFTLDGLECNKIGVGYEAFNTQPNFCSSPYWSCLHNQLWNFRESDINRIDRHQLPLYGLEGRFERINQHPNAGPHSFSIGVTETLNTNLMIELRADDIEYVFQRSPGKIINIAIPTFEALTQFGVAAVIIKNTGEVEASYSLTFDCSKGVAFVEEQFFIIKPKAVTTRSFKLYPTKDQAAKYICTAILKDSQFSEVDRAECQFSTTATVLDNGTQVTNPFQIPETQPKGFFDSIRILWTKIINGLVDFITGDTCRNKCSSFFDFSCHIQYVCLS,not soluble
9,DSLDEQRSRYAQIKQAWDNRQMDVVEQMMPGLKDYPLYPYLEYRQITDDLMNQPAVTVTNFVRANPTLPPARTLQSRFVNELARREDWRGLLAFSPEKPGTTEAQCNYYYAKWNTGQSEEAWQGAKELWLTGKSQPNACDKLFSVWRASGKQDPLAYLERIRLAMKAGNTGLVTVLAGQMPADYQTIASAIISLANNPNTVLTFARTTGATDFTRQMAAVAFASVARQDAENARLMIPSLAQAQQLNEDQIQELRDIVAWRLMGNDVTDEQAKWRDDAIMRSQSTSLIERRVRMALGTGDRRGLNTWLARLPMEAKEKDEWRYWQADLLLERGREAEAKEILHQLMQQRGFYPMVAAQRIGEEYELKIDKAPQNVDSALTQGPEMARVRELMYWNLDNTARSEWANLVKSKSKTEQAQLARYAFNNQWWDLSVQATIAGKLWDHLEERFPLAYNDLFKRYTSGKEIPQSYAMAIARQESAWNPKVKSPVGASGLMQIMPGTATHTVKMFSIPGYSSPGQLLDPETNINIGTSYLQYVYQQFGNNRIFSSAAYNAGPGRVRTWLGNSAGRIDAVAFVESIPFSETRGYVKNVLAYDAYYRYFMGDKPTLMSATEWGRRY,soluble
10,MGSDKIHHHHHHMVHVKMKGSKMLFEALLKEGVDTIFGIPGGAIINVYDELCNYEDKINFYLFRHEQGATHAADGYARVTGKPGVVIVTSGPGATNTVTGIATAYMDSIPIVVITGQVPTSFIGTDAFQEVDVTGITMPITKHNHLVTSIEELPYAIKEMFYVATTGRPGPVLLDFPKDIQTAEGEFNYPDTVEIPGYKPTVKGHPKQIKKAVELLKESKRPVVIVGGGANLSGAMDLVNQFIDKFKVPAVSTLMGRGVNPSDEKLYYEGIGMHGTYYGNYAVANADLIIALGVRFSDRILGNPRTFAKNARIVHVDIDPAEIGKNVRVDVPIVGDLKSVLEEFLKYEIETDFSDWIEELQEIKKKYPLTYKRDGKLIKPQYVVEKVNEVFPDDTVVVADVGQNQMWVAQFYKFKHQRSFLCSGGLGTMGYALPAGIGAKIGAPDKEVVVFAGDGGFQMNIQELMTIKRYNLPVKIIVMDNKALGMVRQWQQLFFNCRYSATILSDNPDFAKIAEAVGIKAMRIEKPDQVDEAIEKLAKSKEPMLIHAVVDPAENVLPMVPPGGDVGTPLIEAPYDETFVERVLKVIEESRRGDER,not soluble
11,MKHMPRKMYSCAFETTTKVEDCRVWAYGYMNIEDHSEYKIGNSLDEFMAWVLKVQADLYFHNLKFAGAFIINWLERNGFKWSADGLPNTYNTIISRMGQWYMIDICLGYKGKRKIHTVIYDSLKKLPFPVKKIAKDFKLTVLKGDIDYHKERPVGYKITPEEYAYIKNDIQIIAEALLIQFKQGLDRMTAGSDSLKGFKDIITTKKFKKVFPTLSLGLDKEVRYAYRGGFTWLNDRFKEKEIGEGMVFDVNSLYPAQMYSRLLPYGEPIVFEGKYVWDEDYPLHIQHIRCEFELKEGYIPTIQIKRSRFYKGNEYLKSSGGEIADLWLSNVDLELMKEHYDLYNVEYISGLKFKATTGLFKDFIDKWTYIKTTSEGAIKQLAKLMLNSLYGKFASNPDVTGKVPYLKENGALGFRLGEEETKDPVYTPMGVFITAWARYTTITAAQACYDRIIYCDTDSIHLTGTEIPDVIKDIVDPKKLGYWAHESTFKRAKYLRQKTYIQDIYMKEVDGKLVEGSPDDYTDIKFSVKCAGMTDKIKKEVTFENFKVGFSRKMKPKPVQVPGGVVLVDDTFTIK,soluble
12,MGSDKIHHHHHHMKIGITCYPSMGGSGIIATELGIKMAERGHEVHFITSNIPFRIRKPLPNMTFHQVEVNQYAVFQYPPYDITLSTKISDVIQEYDLDILHMHYAVPHAVCGILAKQMSGKNVKIMTTLHGTDITVLGYDHTLQNAIKFGIEQSDIVTSVSHSLAQQTYEIINTKKEIIPIYNFVRENEFPTRHNEELKDCYGISPEEKVLIHVSNFRKVKRIDTVIETFAKVHESIPSKLILLGDGPELIDMRHKARELDVETHVLFLGKQNDVSAFYQLSDLVLLLSEKESFGLTLLEAMKTGVLPIGSHAGGIKEVIRHEETGFIVDIGDSTQAAKYAIKLLSNPELYQKMQSQMLKDIEARFSSDLITDQYENYYRKMLEQGENNNES,not soluble
13,MQSWKERRDFNIVKQDLDFSCGAASVVTLLNNFYGQKLTEEDVLKKLDKEQMPASFEDMRRIMPDLGFEAKGYALSFEQLAQLQIPVIVYLKYRKDDHFSVLRGIDGNTVLLADPSLGHVSMSRAQFLDAWQTREGNLAGKILAVVPKGRDAGGDKAFFTRSPKRQTEFAVGQVKWWRAY,not soluble
14,MGSDKIHHHHHHMIEQELTYQDLRIPSSEIYEAMGYKDSIPDQMVIDETNTLLKRVIPLLRPRFAFFFMEGTLDIEKETLSVQSIHPPTVNPIQDTIPTRSPEQNTFSTQSKSTVFSVGKTIARQLRGSEAFVFFAATAGTEFEVFQHTLQQEEDMVKIYIADSLGSIIAEKTADCMEVALAEYIREKNWKHTNRYSPGYCGWHVSEQQKLFPLFPIAAPCGIRLTDSSLMVPIKSVSGVIGTGTNVRKLEYTCGLCTYENCYRKRKHR,not soluble
15,MMQSGYRAPISRKSVVNTTPATPARTDRRTVSMAQQLLMPKATAVWLVDNTALSFDQIATFCKLHPLEVKAIADGEAAQGIKGLDPIATGQLSRDEIARAEGNPSHKLKLSEPKVRVPESKRRGPRYTPVSKRQDRPNAILWLVRNHPELKDAQISRLVGTTKSTIEQIRDRTHWNSANLTPMDPVTLGLCSQIDLDLEVERASRGRPLPTAEELGNTLQPATATEGLDYNNYQREEEQQIDADAVFKKLSSLKSAPKDEDEDDQYLEHHHHHH,soluble
16,MGSDKIHHHHHHMQLYYAPNTISVAVAIALEEAGLAYEAVKIDFAEKQQTTRAYHQINPKGRVPALAVEGGILTETGALLEFIADLAPDADLRPSDPVLQARMREVMFYLASTMHVNHAHKMRGSRWASNPASFKDMARKVPETMAASCEYICNHGLRGPFVLGDTPCLADFYLYVVCTWLEGDGVKLAGFPKLRAFIEAMDARDSVKTVRAKDML,not soluble

# Source: the DeepSol protein solubility set
